Assay [1] deals with T1, FIT-NP (FIT N-terminal plus proline-rich region) (Homo sapiens, UniProt Q9BQI5).
T1 construct: expressed in transfected cells
T1 sequence (Q9BQI5 with tags, fused parts or gaps I33M/P40L/N43H/V56A/I186T/P191L/T195L/E211G/Q212H/I230V/T240A/N255T/I269V/G270A/P271T/S276A/V280A/L285P/N289S/A308T/K311T/T318A/S335T/T339A/P340S/N342I/A348T/L352P/P357S/T358A/DEL367-367/L371P/I397L/D402E/F403C/A409E/P432S/P434T/T437A/R454S/S455C/T456S): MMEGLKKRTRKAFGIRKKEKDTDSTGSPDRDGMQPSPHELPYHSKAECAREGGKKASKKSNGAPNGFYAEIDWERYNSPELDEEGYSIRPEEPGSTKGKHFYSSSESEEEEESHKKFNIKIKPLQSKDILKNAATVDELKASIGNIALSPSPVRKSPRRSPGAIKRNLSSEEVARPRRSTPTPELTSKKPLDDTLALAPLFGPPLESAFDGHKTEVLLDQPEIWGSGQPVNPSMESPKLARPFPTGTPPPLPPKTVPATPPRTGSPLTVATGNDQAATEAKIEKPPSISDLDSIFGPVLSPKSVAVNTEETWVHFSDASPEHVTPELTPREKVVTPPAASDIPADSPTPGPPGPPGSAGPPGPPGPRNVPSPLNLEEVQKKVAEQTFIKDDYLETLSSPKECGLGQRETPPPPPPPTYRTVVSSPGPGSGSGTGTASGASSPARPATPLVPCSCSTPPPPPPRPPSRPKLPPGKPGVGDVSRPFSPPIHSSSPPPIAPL
Briefly: Yeast two-hybrid screen of human brain cDNA library, bait FIT-NP. In kind it is binding. The note with it: for Number of clones: bait FIT-NP, human brain cDNA library, clones listed highest to lowest interacting strength. From the text:
(§1) In order to perform these experiments, two truncated fragments of FIT were constructed to be used as baits in a yeast two-hybrid screen of a human brain cDNA library: one bait consisting of the N-terminal region plus the central proline-rich region, and the other bait consisting of the central proline-rich region alone. The inventors utilised a yeast two-hybrid system which incorporates modifications by Chevray and Nathans (1992), and Vidal et al. (1996) to screen a human brain cDNA library. FIT fragments were PCR amplified, purified and then cloned into an appropriate vector. Sense oligonucleotides for FIT-NP (5′-[…]-3′: SEQ ID NO:72), and FIT-PR (5′-[…]-3′: SEQ ID NO:73), with Sal1 restriction enzyme sites underlined, were used in conjunction with a common antisense oligonucleotide (5′-[…]-3′: SEQ ID NO:74), with the Not1 restriction enzyme site underlined.
(§2) Human brain cDNA inserts were prepared and cloned into the expression vector according to manufacturer's instructions.

The target of assay [2] is T2, FIT-PR (FIT proline-rich region) (Homo sapiens, UniProt Q9BQI5).
T2 construct: expressed in transfected cells
T2 sequence (Q9BQI5 with tags, fused parts or gaps N255T/I269V/G270A/P271T/S276A/V280A/L285P/N289S/A308T/K311T/T318A/S335T/T339A/P340S/N342I/A348T/L352P/P357S/T358A/DEL367-367/L371P/I397L/D402E/F403C/P432S/P434T/T437A/R454S/S455C/T456S): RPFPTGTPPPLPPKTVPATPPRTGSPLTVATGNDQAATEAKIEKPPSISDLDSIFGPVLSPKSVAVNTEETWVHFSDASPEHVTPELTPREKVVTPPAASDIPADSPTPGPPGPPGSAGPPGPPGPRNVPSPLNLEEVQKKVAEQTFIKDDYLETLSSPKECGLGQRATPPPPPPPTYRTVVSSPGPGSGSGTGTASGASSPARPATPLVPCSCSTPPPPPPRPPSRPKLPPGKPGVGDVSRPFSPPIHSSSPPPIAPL
Briefly: Yeast two-hybrid screen of human brain cDNA library, bait FIT-PR. The note with it: clones listed highest to lowest interacting strength. In kind it is binding.
Excerpt: as §1, with “To investigate the mechanism by which FIT regulates energy balance, neural proteins that interact with FIT were identified. In” for “In”
as §2

B1: Homo sapiens regulatory factor X, 2 (RFX2): FIT interacting protein isolated from a human brain cDNA library (protein)
chain: MQNSEGGADSPASVALRPSAAAPPVPASPQRVLVQAASSNPKGAQMQPISLPRVQQVPQQVQPVQHVYPAQVQYVEGGDAVYTNGAIRTAYTYNPEPQMYAPSSTASYFEAPGGAQVTVAASSPPAVPSHSMVGITMDVGGSPIVSSAGAYLIHGGMDSTRHSLAHTSRSSPATLEMAIENLQKSEGITSHKSGLLNSHLQWLLDNYETAEGVSLPRSSLYNHYLRHCQEHKLDPVNAASFGKLIRSVFMGLRTRRLGTRGNSKYHYYGIRLKPDSPLNRLQEDTQYMAMRQQPMHQKPRYRPAQKTDSLGDSGSHSGLHSTPEQTMAVQSQHHQQYIDVSHVFPEFPAPDLGSFLLQDGVTLHDVKALQLVYRRHCEATVDVVMNLQFHYIEKLWLSFWNSKASSSDGPTSLPASDEDPEGAVLPKDKLISLCQCDPILRWMRSCDHILYQALVEILIPDVLRPVPSTLTQAIRNFAKSLEGWLTNAMSDFPQQVIQTKVGVVSAFAQTLRRYTSLNHLAQAARAVLQNTSQINQMLSDLNRVDFANVQEQASWVCQCEESVVQRLEQDFKLTLQQQSSLDQWASWLDSVVTQVLKQHAGSPSFPKAARQFLLKWSFYSSMVIRDLTLRSAASFGSFHLIRLLYDEYMFYLVEHRVAEATGETPIAVMGEFNDLASLSLTLLDKDDMGDEQRGSEAGPDARSLGEPLVKRERSDPNHSLQGI
modifications: left off: large carriers
As for B1, the Number of clones in assay [1] turned out to be 10; in assay [2] it was 1.

B2: endophilin 1: FIT interacting protein isolated from a human brain cDNA library (protein)
chain: MSVAGLKKQFHKATQKVSEKVGGAEGTKLDDDFKEMERKVDVTSRAVMEIMTKTIEYLQPNPASRAKLSMINTMSKIRGQEKGPGYPQAEALLAEAMLKFGRELGDDCNFGPALGEVGEAMRELSEVKDSLDIEVKQNFIDPLQNLHDKDLREIQHHLKKLEGRRLDFDYKKKRQGKIPDEELRQALEKFDESKEIAESSMFNLLEMDIEQVSQLSALVQAQLEYHKQAVQILQQVTVRLEERIRQASSQPRREYQPKPRMSLEFPTGDSTQPNGGLSHTGTPKPSGVQMDQPCCRALYDFEPENEGELGFKEGDIITLTNQIDENWYEGMLHGHSGFFPINYVEILVALPH
modifications: left off: large carriers
For B2, the Number of clones in assay [1] is reported as 14; in assay [2] it was 12. The “strength of interaction with FIT” value in assay [1] (in yeast) is reported as “very strongly”.

These data come from patent publication US20080105961A1, “Ligands of the Molecule Fit (Agt-121) and their Pharmaceutical Use” (priority 2004, published 2008).
